This note sets out measurements from article PMC7893173.

The target in experiment [1] is HSV-1 nuclear egress complex NEC220 (UL31 1–306 with UL34 1–220) (herpes simplex virus type 1) (UniProt P10215).
For experiment [2] the target is unchanged. The source holds these as a separate data set.
Experiment [3] has the same target. The source holds these as a separate data set.

“UL25^native(45–94) peptide (from UniProt P10209 45-94)” came in with an inhibition of NEC220-mediated budding of giant unilamellar vesicles in vitro (1 μM NEC220; NEC:peptide 1:0.1, 1:0.3, 1:0.6, 1:1 and 1:10; maximal effect at 1:1) (% reduction in budding) in experiment [1] of 75. “HSV-1 UL25∆44 Q72A (from UniProt P10209 45-580) (domain or fragment)” yielded an inhibition of NEC220-mediated budding of giant unilamellar vesicles in vitro (1 μM NEC220; not inhibitory at NEC:UL25 1:1, value at 1:10) (% reduction in budding) in experiment [2] of 90.

B1: (EAEKAAK)7EAEK peptide (peptide)
peptide: EAEKAAKEAEKAAKEAEKAAKEAEKAAKEAEKAAKEAEKAAKEAEKAAKEAEK
In experiment [3], B1 had an inhibition of NEC220-mediated budding of giant unilamellar vesicles in vitro (1 μM NEC220; not inhibitory at NEC:peptide 1:1, value at 1:10) (% reduction in budding) of 50.
